Experimental findings from PMC3320582, “Group A Streptococcus Secreted Esterase Hydrolyzes Platelet-Activating Factor to Impede Neutrophil Recruitment and Facilitate Innate Immune Evasion” (PLoS Pathogens, 2012) are described below.

Substrate in the data set: [H][C@@](COCCCCCCCCCCCCCCCC)(COP(=O)([O-])OCC[N+](C)(C)C)SC(C)=O
The data set can be described thus: purified protein. To be noted: PAF acetylhydrolase assay kit; measured as comparison to SsE. Type of data set: biochemical, Homo sapiens.

B1: human recombinant plasma PAF acetylhydrolase (Homo sapiens) (protein)
chain: FDWQYINPVAHMKSSAWVNKIQVLMAAASFGQTKIPRGNGPYSVGCTDLMFDHTNKGTFLRLYYPSQDNDRLDTLWIPNKEYFWGLSKFLGTHWLMGNILRLLFGSMTTPANWNSPLRPGEKYPLVVFSHGLGAFRTLYSAIGIDLASHGFIVAAVEHRDRSASATYYFKDQSAAEIGDKSWLYLRTLKQEEETHIRNEQVRQRAKECSQALSLILDIDHGKPVKNALDLKFDMEQLKDSIDREKIAVIGHSFGGATVIQTLSEDQRFRCGIALDAWMFPLGDEVYSRIPQPLFFINSEYFQYPANIIKMKKCYSPDKERKMITIRGSVHQNFADFTFATGKIIGHMLKLKGDIDSNVAIDLSNKASLAFLQKHLGLHKDFDQWDCLIEGDDENLIPGTNINTTNQHIMLQNSSGIEKYN
notes: commercial recombinant protein (Cayman Chemical)
In the case of B1, the Km (usually the substrate concentration at which the rate is half of its maximum) stood at 8.0 µM; the kcat (commonly the number of substrate molecules converted per active site and unit of time at saturation) is 15.4 s⁻¹.
